Experimental data published in patent publication US20230192900A1 (published 2023).

How the values were obtained:
[1] = molecular target: T1, human CD9 (human, UniProt P21926 2-228); assay: selection on cells expressing full-length CD9; method not described
T1 construct: The cells expressing full-length CD9 that were used to select the antibodies are not described; In the functional assays CD9 stands on human PBMC; also called full-length cell-expressed CD9; Tetraspanin-29
T1 sequence: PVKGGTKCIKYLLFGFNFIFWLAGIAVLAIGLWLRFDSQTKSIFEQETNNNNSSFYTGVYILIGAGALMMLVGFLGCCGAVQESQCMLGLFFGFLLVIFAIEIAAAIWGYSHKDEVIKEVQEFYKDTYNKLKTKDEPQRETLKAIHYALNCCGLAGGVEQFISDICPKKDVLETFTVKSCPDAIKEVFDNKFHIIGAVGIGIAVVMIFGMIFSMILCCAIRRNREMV

[2] = molecular target: T2, recombinant human CD9 long extracellular loop 2-human Fc fusion protein (10015-CD, R&D Systems) (human, UniProt P21926 112-195); assay: biolayer interferometry (Octet RED384), CD9 loop 2-human Fc captured on AHC biosensors, Fab at 10 µg/mL
T2 construct: Bought reagent; also called CD9-loop2; long extracellular loop 2 peptide; not shown: human Fc
T2 sequence: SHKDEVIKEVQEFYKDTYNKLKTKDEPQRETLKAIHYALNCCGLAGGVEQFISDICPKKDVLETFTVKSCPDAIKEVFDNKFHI
Source text: CD9 contains two extracellular loops: a short extracellular loop (loop 1: 34-55 in SEQ ID NO:2) and a long extracellular loop (loop 2: 112-195 in SEQ ID NO:2). We used biolayer interferometry to assess binding of our panel of CD9 Fab-Y antibodies (selected for their ability to bind full-length cell-expressed CD9) to the long extracellular loop 2 peptide, using the Octet® RED384 System (ForteBio) with Anti-hlgG Fc Capture (AHC) Biosensors (ForteBio) at room temperature. Firstly, an array of 8 sensors was dipped in kinetics buffer (PBS 0.1%, BSA 0.02%, Tween 20) for 120 seconds to provide a baseline signal. Sensors were then moved to wells containing 200 μl of recombinant human CD9 long extracellular loop 2-human Fc fusion protein (10015-CD, R&D Systems®) at 2 μg/mL in kinetics buffer to immobilize the protein to the biosensor (100 seconds), followed by a second baseline step (180 seconds) in kinetics buffer to equilibrate the biosensors now coated with the CD9 long extracellular loop 2-human Fc fusion protein. No detachment of the peptide was observed during this step. Sensors were then dipped in wells containing one of the anti-CD9 Fab (10 μg/mL) to evaluate association of each antibody to CD9-loop2 (120 seconds), followed by dissociation in kinetics buffer (600 seconds). Anti-CD137 Fab-Y (11175) was used as negative control during the antibody association step. […]

B1: anti-CD9 Fab-Y antibody 7272 (Fab, V domains shown)
VH: QSLEESGGRLVTPGTPLTLTCTVSGFSLSSYAMGWVRQAPGKGLEWIGAIGSITATGYARWAKGRFSISKTSTTVDLKMTSPTTEDTATYFCAREIYVGSAYAFDIWGPGTLVTVSS
VL: AYDMTQTPASVEVAVGDTVTIKCQASQSISNYLAWYQQKPGQPPKLLIYLASTLASGVPSRFKGSGSGTEFTLTISDLECADAATYYCQQGYIDNVNKGFGGGTEVVVK
notes: also called VR7272
Q: What does the source list for B1?
A: binding result [1]: binds; binding result [2]: binds
